Kd data for two molecules are collected here from publication PMC12093266, “Synergistic action of two radical SAM enzymes in the biosynthesis of thuricin CD, a two-component sactibiotic†” (Chemical Science, 2025).

The term Kd denotes the equilibrium constant for the complex coming apart.

In this assay the target is T1, TrnC (Bacillus thuringiensis, fluorescently labeled with RED-NHS (in the MST experiments where TrnC is the labelled partner)).
T1 construct: TrnC, radical SAM (rSAM/SPASM) sactisynthase encoded in the thuricin CD biosynthetic gene cluster of Bacillus thuringiensis; Likely holds three [4Fe-4S] clusters after reconstitution; also called 6× His-tagged TrnC; wild type TrnC; source: E. coli, purified to near homogeneity and reconstituted under anaerobic conditions; also E. coli lysate, coexpressed with non-tagged TrnD from a …
The experiment in a line: MST; TrnC fluorescently labeled with RED-NHS; series of diluted TrnD (or TrnD(ΔRRE), or an equimolar mixture of TrnD with TrnA or TrnB) mixed with it in capillaries; Monolith instrument; aerobic conditions. Particulars: both partners purified.

B1: TrnD (enzyme)
chain: MKKYFRLYPYCHLEIGETNSCLYDISSGKMIRVNRENAELLRQCQENVPIESINMDLGILDELIKMNLGTYYANPQFIEPFFETNDTKNRIFGKNNILRQMFILTSTDCNMNCKHCNTDSTVFRKTGCKIWPKSINLNALTQSHWRKILEAFYNLHGEELTFIGGEPFLEFDFIKNIVEIAQEVGISKFSIFTNGSIINDTILNFLMENKIKVYIQIFEVDENKFKAFTNSDIPSIQIIDNIKKLNNHHLDLQLRILITRDNDNNLKKIVNTLQKETNVKDIKIEFLYPKPDNSYYSKKYIPLMYDKKREFSHVNVQKMQFLHQYNPSFFGQITIRRDGKVVPHPMLLTRVIGDLQQDDLFTIINTEEYQEYSTLNKEKISKCSTCAYKYNCMDDRVIENFATGDLYGMEYCNF
modifications: fluorescently labeled (in the MST of Fig. 5D only)
Regarding B1, the Kd was found to be 2390 ± 460 nM.

B2: equimolar mixture of TrnD and TrnB (complex)
chain 1: MKKYFRLYPYCHLEIGETNSCLYDISSGKMIRVNRENAELLRQCQENVPIESINMDLGILDELIKMNLGTYYANPQFIEPFFETNDTKNRIFGKNNILRQMFILTSTDCNMNCKHCNTDSTVFRKTGCKIWPKSINLNALTQSHWRKILEAFYNLHGEELTFIGGEPFLEFDFIKNIVEIAQEVGISKFSIFTNGSIINDTILNFLMENKIKVYIQIFEVDENKFKAFTNSDIPSIQIIDNIKKLNNHHLDLQLRILITRDNDNNLKKIVNTLQKETNVKDIKIEFLYPKPDNSYYSKKYIPLMYDKKREFSHVNVQKMQFLHQYNPSFFGQITIRRDGKVVPHPMLLTRVIGDLQQDDLFTIINTEEYQEYSTLNKEKISKCSTCAYKYNCMDDRVIENFATGDLYGMEYCNF
chain 2: MEVLNKQNVNIIPESEEVGGWVACVGACGTVCLASGGVGTEFAAASYFL
In the case of B2, the Kd was found to be 620 ± 160 nM.
